Measured values published in article PMC11162469, “Discovery of RXFP2 genetic association in resistant hypertensive men and RXFP2 antagonists for the treatment of resistant hypertension” (Scientific Reports, 2024).

How the values were obtained:
human LDLa-linker = biological target: T1, human LDLa-linker (Homo sapiens, UniProt Q8WXD0); assay: Biacore S200 binding to human LDLa-linker protein
T1 construct: human LDLa linker [huRXFP2-LDLa-linker(38-105)-ratFc-8XHIS]; enterokinase cleavage site (C); rat Fc (C, cleaved yes); 8xHis (C, cleaved yes); made in house; host or cells: Expi293
T1 sequence (Q8WXD0 38-105): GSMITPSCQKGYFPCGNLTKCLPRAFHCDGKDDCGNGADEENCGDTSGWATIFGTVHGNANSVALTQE
Procedure: Goat anti Rat Fc gamma fragment specific (Jackson Immunoresearch, 112-005-071) was immobilized at 30 µg/mL to a Series S CM5 chip (Cytiva Life Sciences). In three separate runs, twenty different purified recombinant rat anti RXFP2 antibodies were then captured to the CM5 chip at a concentration of 5 µg/mL. The antibody panel was captured; rat LDLa-linker or human LDLa-linker protein was flowed as analyte at the following concentrations: 20 nM, 10 nM, 5 nM, 2.5 nM, […], and 0 nM. Antibody kinetics were evaluated using a 1:1 fit model (Biacore S200).

rat RXFP2 = rat RXFP2 (Rattus norvegicus, UniProt F7EMH8); assay: INSL3-stimulated CYP11B2 mRNA expression in H295R stably expressing rat RXFP2; format: cell-based; parameters: expressed in transfected cells; conditions: INSL3 EC80 (3.5 nM), 48 h, qPCR; N = 2
rat RXFP2, sequence (F7EMH8 20-737): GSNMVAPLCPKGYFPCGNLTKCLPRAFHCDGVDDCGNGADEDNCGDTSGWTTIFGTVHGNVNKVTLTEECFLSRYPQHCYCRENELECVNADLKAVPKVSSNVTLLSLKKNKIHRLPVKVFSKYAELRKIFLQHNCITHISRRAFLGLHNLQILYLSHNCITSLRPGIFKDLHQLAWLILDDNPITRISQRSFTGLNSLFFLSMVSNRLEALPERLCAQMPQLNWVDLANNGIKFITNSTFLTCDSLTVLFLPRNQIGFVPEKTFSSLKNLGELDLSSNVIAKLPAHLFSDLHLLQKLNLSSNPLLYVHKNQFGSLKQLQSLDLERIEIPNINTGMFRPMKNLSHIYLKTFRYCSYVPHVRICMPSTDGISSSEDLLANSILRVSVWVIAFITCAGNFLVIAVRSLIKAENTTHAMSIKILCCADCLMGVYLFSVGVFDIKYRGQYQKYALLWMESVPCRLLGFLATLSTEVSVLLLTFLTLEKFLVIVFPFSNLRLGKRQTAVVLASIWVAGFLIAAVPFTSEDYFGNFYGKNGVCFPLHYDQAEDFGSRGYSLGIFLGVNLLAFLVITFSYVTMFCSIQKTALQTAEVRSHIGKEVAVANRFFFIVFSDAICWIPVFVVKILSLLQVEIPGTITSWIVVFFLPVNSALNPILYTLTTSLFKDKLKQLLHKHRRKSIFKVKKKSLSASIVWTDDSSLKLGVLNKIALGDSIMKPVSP
Procedure: RXFP2 antagonists were added to H295R-rRXFP2 before addition of INSL3 EC80 (3.5 nM) for 48 h, whereupon the cells and supernatants were collected. CYP11B1 and CYP11B2 mRNA were determined by qPCR and the RXFP2 blocker potencies were calculated (Fig. 5a). Fifteen antibodies have IC50s < 50 nM, and three of the top antibodies (1F2, 4G6, and 2D4) were selected for evaluation in steroid hormone secretion assays by ELISA.
Data entered as XY table, with x = [Inhibitor] (nM) and y = CYP11B2 or CYP11B1 fold change.

[1] = biological target: T2, human LDLa peptide (UnitProt Q8WXD0 43-80) (Homo sapiens, UniProt Q8WXD0); assay: ELISA binding to linker-less human LDLa peptide
T2 construct: human LDLa peptide (Q8WXD0 43-80)
T2 sequence (Q8WXD0 43-80 limits assumed): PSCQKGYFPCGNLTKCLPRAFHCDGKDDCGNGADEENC
Procedure: The human/rat RXFP2 cross reactive antibodies belong to two epitope bins and were further evaluated for binding to the linker-less human LDLa peptide (UnitProt Q8WXD0 43-80) by ELISA. […] The different domain requirements for binding are consistent with results from the binning experiment showing 4F6 and 4G6 are in a separate bin from 4B1.
Rat LDLa-linker_ratFc, human LDLa-linker_ratFc, or ratFc, or human LDLa peptide (Q8WXD0 43-80) was diluted to 1 µg/mL in 1X PBS and immobilized in separate 96-well ELISA plates (Nunc Maxisorp), 50 µL/well. The plates were then incubated overnight at 4 °C. The following day the plates were washed three times with ELISA wash buffer (PBS + 0.05% Tween-20) and then blocked with ELISA blocking buffer (PBS + 0.05% Tween-20 + 1% BSA), 200 µL/well, and incubated 1 h at room temperature on a shaker. Plates were again washed three times followed by the addition of the primary antibodies. Hybridoma supernatant was added neat, 50 µL/well; mouse serum was added 1:100 and then serially diluted 1:2 for 8 points, 50 µL/well. Purified antibodies were added 5 µg/mL in the first well and serially diluted down the plate 1:2 for 8 points, 50 µL/well. Primary antibody was incubated for 1 h at room temperature on a shaker. […] Stopping solution (2N Sulfuric acid) was added to the plates 50 µL/well, and then read on a plate reader (SpectraMax Molecular Devices) at 450 nm.

cross reactivity to the human LDLa-linker (human LDLa-linker): cross reactivity | IC50 (rat RXFP2): 0.1 nM | binding to linker-less human LDLa peptide [1]: bind
B1: 4G6: Human/rat cross-reactive RXFP2 monoclonal antibody, rat IgG2b backbone; binds the LDLa domain (antibody, V domains shown)
VH: EVQLQQSGPELVKPGASVKLSCKASGYTFTSYVMHWVKQKPEQGLEWIGYKNPSNDGIKYNEKFKGKATLTSDKSSNIAYMELFSLTSEDSAVYYCARSDFGSVWAMDYWGQGTSVTVSS
VL: SIVMTQTPKFLLVSAGDRVTITCKASQSVNDDIVWYQQKPGQSPKLLIYYASNRYTGVPDRFTGSGYGTDFTFTISTVQAGDLAVYFCQQDYSSPFTFGSGTKLEIK
